B1: PDGFRβ 890-898 peptide ILLWEIFTL (peptide)
peptide: ILLWEIFTL
notes: Synthetic peptide (Fmoc), >96% pure; also called PDGFRβ (891)

target: T1, HLA-A2 complexes expressed by T2 cells (human); test: T2 class I stabilization assay, flow cytometry
T1 construct: whole, on cells; also called HLA-A2.1 class I molecule

binding result | Binder
binds | VIAMFFWLL (Synthetic peptide (Fmoc), >96% pure) [VEGFR2 773-781 peptide VIAMFFWLL]
binds | FLNKCETWV (Synthetic peptide (Fmoc), >96% pure) [DLK1 326-334 peptide FLNKCETWV]
binds | RLLGNVLVCV (Synthetic peptide (Fmoc), >96% pure) [HBB 105-114 peptide RLLGNVLVCV]
binds | ILGVLTSLV (Synthetic peptide (Fmoc), >96% pure) [DLK1 310-318 peptide ILGVLTSLV]
binds | TLSNLSFPV (Synthetic peptide (Fmoc), >96% pure) [NG2 770-778 peptide TLSNLSFPV]
binds | LAALPHSCL (Synthetic peptide (Fmoc), >96% pure) [RGS5 5-13 peptide LAALPHSCL]
binds | RLLVVYPWT (Synthetic peptide (Fmoc), >96% pure) [HBB 31-39 peptide RLLVVYPWT]
binds | DIWDGIPHV (Synthetic peptide (Fmoc), >96% pure) [NRP2 214-222 peptide DIWDGIPHV]
binds | TLADFDPRV (Synthetic peptide (Fmoc), >96% pure) [EphA2 883-891 peptide TLADFDPRV]
binds | VLLGAVCGV (Synthetic peptide (Fmoc), >96% pure) [NRP1 869-877 peptide VLLGAVCGV]
binds | YLQVDLRFL (Synthetic peptide (Fmoc), >96% pure) [NRP2 328-336 peptide YLQVDLRFL]
binds | TLFWLLLTL (Synthetic peptide (Fmoc), >96% pure) [VEGFR1 770-778 peptide TLFWLLLTL]
binds | GLLRFVTAV (Synthetic peptide (Fmoc), >96% pure) [NRP1 331-339 peptide GLLRFVTAV]
binds | RLTPGVHEL (Synthetic peptide (Fmoc), >96% pure) [DLK1 269-277 peptide RLTPGVHEL]
binds | B1
binds | LLVPTCVFLV (Synthetic peptide (Fmoc), >96% pure) [TEM1 691-700 peptide LLVPTCVFLV]
binds | NMLGMLSGL (Synthetic peptide (Fmoc), >96% pure) [NRP2 436-444 peptide NMLGMLSGL]
binds | GMLGMVSGL (Synthetic peptide (Fmoc), >96% pure) [NRP1 433-441 peptide GMLGMVSGL]
binds | LILPLLFYL (Synthetic peptide (Fmoc), >96% pure) [NG2 2238-2246 peptide LILPLLFYL]
